For 22 molecules, EC50 results are on record in patent US20200147199A1.

Substitutions are numbered along the chain they refer to. Where only a bound is given, the exact number is not on record here.

B1: Z053 (BRA138_65) (antibody, V domains shown)
VH: QLQLQESGPGLVKPSETLSLTCTVSGGSISSYNYYWGWIRQPPGKGLEFIGSIYYTGSTYYNPSLRSRVTISVDTSKNQFSLKLTSVTAADTAVYYCARHGPGMGHNWYFDLWGRGTLVTVSS
VL: EIVLTQSPATLSLSPGERATLSCRASQSISSYLAWYQQKPGQAPRLLIYDASNRAPGIPARFSGSGSGTDFTLTISSLEPEDFAVYYCQQRSTWLTFGGGTKVEIK
B2: Z007 (MEX105_50) (antibody, V domains shown)
VH: EVQLLESGGGLVRPGGSLRLSCTASGFTFRRYAMAWVRQAPGKGLEWVSLIYDGDDSTYYAKSVKGRFAISRDNSKNTLSLQMNSLRAEDTAVYYCVKDRDNGWSSIVDWGQGTLVTVSS
VL: DIQMTQSPSTLSASVGDRVTITCRASHSISGWLAWYQQKPGKAPKLLIYQASILESGVPSRFSGSGSGTEFTLTIGSLQPEDFATYFCQQYSTFWTFGQGTKVEIK
B3: Z009 (MEX105_64) (antibody, V domains shown)
VH: B2 VH with D53N, K62E, A69T, I70V, K76Q, V93I, K98R
VL: B2 VL with H27R, S28T, S30G, G31S, S56G, G66V, G76R
B4: Z008 (MEX105_60) (antibody, V domains shown)
VH: B2 VH with Y32F, Y52W, D53N, K62E, K65R, A69T, K76H, N84R, V93I
VL: B2 VL with H27Q, S28T, S30G, G31N, I53V, G76S
B5: Z057 (MEX84_p4-54) (antibody, V domains shown)
VH: EVQLVQSGAEVKRPGASVKVSCKASGYTFADYYIHWVRQAPGLGLEWMGWINPKTGFSHYEQTFQGRVTMARDTSIPAAYMELSSLKSDDTAIYYCARGGRINVAEALRYWGQGSLVTVSS
VL: DIQMTQSPSTLSTFVGDRVTITCRASQTIGDWLAWYQQKPGKAPKLLISKATRLESGVPSRFSGSGSETEFSLTINSLQPDDVAAYYCQQYMSYPWTFGQGTKLEIK
B6: Z051 (BRA138_59) (antibody, V domains shown)
VH: QVQLQESGPGLVKPSQTLSLTCTVSGVSISSGGYYYSWFRQLPGKGLEWIGHIYYTGNTHYNPSLRSRLTISVDTSKNQFSLKLSSVTAADTARYYCARAWCEYAAYCWFDPWGRGTLVTVSS
VL: EIVLTQSPGTLSLSPGERATLSCRASQSVTSSYLAWYQHKPGQAPRLLIYGASSRAPGIPDRFSGSGSGTDFTLTISRLEPEDFAVYWCQQYGRSPFTFGQGTKLEIK
B7: Z036 (BRA112_91) (antibody, V domains shown)
VH: EVQLLESGGDLVQPGGSLRLSCAASGFTFSTYGMAWVRQAPGKGLEWLSSISSVDDSKYYAASVKGRFTISRDNSRNTLYLHMNSLRVDDTAVYYCAKDRIPHGLGELYANWGQGTLVTVSS
VL: DIQMTQSPSTLSASVGDRVTITCRASQSISGWLAWYQQKPGKAPRLLMHKASNLYSGVPSRFSGSGSGTEFTLTISSLQPDDFATYYCQHYHSYPYTFGQGTKVEIK
B8: Z017 (MEX84_p2-58) (antibody, V domains shown)
VH: QVQLVQSGAGMRKPGASVKVSCKASGYSFNDYYIHWVRQAPGQGLEWMGWINPKSGFTNYAQRFQGRVTMTGDTSNSVAYMELTRLTSDDTAVYYCARGGRINAPLGFDPWGQGTLVTVSS
VL: EIVLTQSPDTLSLSPGETATLSCRASQSIGSISLGWYQQKFGQAPRLLIYGASTRATGTPDRFSGSGSETDFTLTISRLEPEDSAVYYCQQYVSSPLRFGGGTKVEIK
B9: Z005 (MEX18_13) (antibody, V domains shown)
VH: EVQLLESGGGLVQPGGSLRLSCAASGFTFSSYAMSWVRQAPGKGLEWVSSFSGIDDSTWYADSVKGRFTISRDNSKSTLYLQMNSLRAEDTAVYYCAKDRLVRGFAEVLDYWGRGTLVTVSS
VL: DIQMTQSPSSLSASVGDRVTITCRASQDISKYLAWYQQRPGKVPNLLIYTASTLQSGVPSRFSGSGSGTHFTLTISSLQPEDVATYYCQKYNSVPWTFGQGTKVEIK
B10: Z016 (MEX84_p2-55) (antibody, V domains shown)
VH: QVQLVQSGAEVKKPGASVKLSCKASGYTFTSYYVHWVRQAPGQGLEWMGIINPGNNFVSFAQNFYDRATMTRDTSTNTVYMELTNLQSEDTAVYYCARTLVAPSAQSMYYFDFWGQGTLVTVSS
VL: EIVLTQSPGTLSLSPGERGTLSCRASQYITTGHFAWYQQKPGRAPRLLIYGASVRATGVPDRFSGSGAETDFTLTISRLDPEDVGVYYCQQYGSSPVTFGPGTKVDIK
B11: Z055 (MEX84_p4-61) (antibody, V domains shown)
VH: EVQLVQSGAEVKKPGASVKVSCKASGYTFSGYYIHWLRQAPGQGLEWMGWINSNSGGADSGPRFHGRVTMTRDTSINTAYLELTNLRSDDTAVYYCARRTYYDTRFPYWYFDLWGRGTLVTVSS
VL: AIRMTQSPSSLSASVGDRVTITCRASQDIGSYLNWYQQKPGKAPNVLISAASTLQSGVPSRISGIGSGTDFTLTISSLQPEDFATYYCQQSLSAPYTFGQGTKLEIK
B12: Z061 (BRA112_36) (antibody, V domains shown)
VH: EVQLVESGGGVVQPGRSLRLSCAASGFTFSISTIHWVRQAPGKGLEYVVVISHDGNTKYYADSVKGRFIISRDNSKNTVFLQMNSLRPVDTAVYYCARGEVGYFDLWGRGTLVTVSS
VL: EIVLTQSPATLSLSPGERATLSCRASQSVSSFLAWYQQKPGQPPRLLIYDASTRATGIPARFSGSGSGTDFTLTISSLEPEDFAVYYCQQRSNWPPITFGQGTRLEIK
B13: Z056 (MEX84_p2-94) (antibody, V domains shown)
VH: EVQLVQSGAEVKKPGASVKVSCKASGNTFMGYYFHWVRQAPGQGLEWMGWINPNSGHANIAQTFQGRVTMTRDPSITTAYMELSRLRSDDTAVFYCARGGMLGQLWALDNWGQGTLVTVSS
VL: DIQMTQSPSTLSASVGDRVTITCRASQSISHWLAWYQQRPGEAPKLLIYQASTLESGVPSRFSGSGSGTEFTLSISSLQPDDFATYYCQQYQSSPYTFGQGTKLEIK
B14: Z059 (MEX84_p4-34) (antibody, V domains shown)
VH: EVQLVQSGAEVKTPGSSVKVSCKTSGGTFSNFAITWVRQAPGQGLEWMGGIIPLFGITNYTQKFQGRVTITTDESKTTAYMDLSGLRSEDTAVYFCARGRDSSGRLLDHWGQGTLVTVSS
VL: EIVMTQSPATLSVSPGERATLSCRASQTVNRNLAWYQQKPGQAPRLLIYAASARATGVPARFSGSGSGTEFTLTISSLQSEDFVVYYCQQYNNWPPLTFGGGTKLEIK
B15: Z062 (BRA112_70) (antibody, V domains shown)
VH: EVQLVESGGGVVQPGRSLRLSCAASGFSFSSHAMYWVRQAPGKGLEWVAIVSYDGSTKNYADSVKGRFTISRDNSKNTIYLHLNSLRAEDTAVYFCAREVDGIYGYLHYWGQGTLVTVSS
VL: EIVLTQSPATLSLSPGERATLSCRARQNVRNFLAWYQQKPGQAPRLLIYDASNRATDIPARFSGSGSGTDFTLTISSLEPEDFAVYYCQQRSYSITFGQGTRLEIK
B16: Z050 (BRA138_28) (antibody, V domains shown)
VH: QVQLVQSGAEVKKPGSSVKVSCKAPGGTFSRYSIAWVRQAPGQGLEWMGGINPTFTTPNYAQKFQGRVTITADESTNTAYLDLSSLRSEDTAVYYCARFRYYYESGGYSDASPYYLDYWGQGTLVTVSS
VL: EIVLTQSPATLSLSPGERVTLSCRASQSVSSYLAWYQQKPGQAPRLLIYDASNRATGIPARFTGSGSGTDFTLTISSLEPEDFAVYYCQQRSNWPLTFGGGTKVEIK
B17: Z052 (BRA138_62) (antibody, V domains shown)
VH: QVQLQESGPGLVKPSQTLSLTCTVSGGSITGGVYYWNWIRHHPGKGLEWIGYMFYSGDTDYNPSLRSRVTISGDTSKNKFSLNLNSVTAADTAVYYCARAGFDYGSPVSAFDIWGQGTLVTVSS
VL: EIVLTQSPATLSLSPGERATLSCRASQSVSSTYLVWYQQKPGQAPRLLIYGASSRATGIPDRFSGSGSGTDFTLTISRLEPEDFAVYFCQQYAHSPRGYTFGQGTKLEIK
B18: Z002 (MEX18_27) (antibody, V domains shown)
VH: EVQLLESGGGLVQPGGSLRLSCATSGFTFSTYAMSWVRQAPGKGLEWVSSFSGVDDSTYYAESVKGRFTISRDNSKNTVYLQMTRLRAEDTAVYYCAKDRGPRGVGELFDSWGQGTLVTVSS
VL: DIQMTQSPSTLSASVGDRVTMTCRASQSINRWLAWYQQKPGKAPKLLIYTTSTLKSGVPSRFSGSGSGTEFTLTISSLQPDDFATYYCQHFHSVPWTFGQGTKVEIK
B19: Z003 (MEX18_58) (antibody, V domains shown)
VH: EVQLLESGGGLVQPGGSLRLSCATSGFTFTTFAMSWVRQAPGKGLEWVSSISGADDSTYYAASVKGRFTISRDNSRSTLFLQMNSLRAEDTAVYYCAKDRGPRGVGELFDSWGQGTLVTVSS
VL: B18 VL with M21I, N30S, R31K, K45R, H92F
B20: Z011 (MEX105_15) (antibody, V domains shown)
VH: EVQLLESGGGLVQPGGSLRLSCAASGFTFRTYAMSWVRQPPGKGLEWVSSISAREDSTYFAASVRGRFTISRDNSKNTLYLQMNNLRAEDTALYYCAKDRLQLGVGELYESWGQGTLVTVSS
VL: B18 VL with M21I, S28N, R31S, T50M, T51A, T53S, K55Q, I75V, F91Y, V94Y
B21: Z034 (BRA112_09) (antibody, V domains shown)
VH: EVQLLESGGGLAQPGGSLRLSCETSGFTFRSYGMGWVRQAPGKGLEWVSSIYISGDSTYYAASVKGRFTISRDNSKSTLYLQMDRLTAEDTAVYYCVRDRIQGGFGELYRYWGQGTLVTVSS
VL: B18 VL with I29V, R31K, T50E, T53I, K55E, P59S, F91Y, S93G, V94Y
B22: Z013 (MEX18_84) (antibody, V domains shown)
VH: EVQLLESGGGLVQPGGSLRLSCAASGFTFTSYAMNWVRQAPGKGLEWVSGIGGRGAIAGDGSIYYADSVKGRFTISRDNSKNIVYLQMNGLRVEDTAVYYCAKDRVAFDGFHVWGQGTLVTVSS
VL: DIQMTQSPPTLSASVGDRVTITCRASQSISSWLAWYQQKPGKAPKLLIYKASSLESGVPSRFSGSGSGTEFSLTISSLQPEDFATYYCQQYNSYPWTFGQGTKVEIK

The target in the test is ZIKV E Domain III ([..]), polyhistidine-AviTag, produced in HEK-293-6E cells (ZIKV). The test is described as follows: ELISA on coated ZIKV EDIII. Conditions: remark: other sources report otherwise.
On to B1, for which the EC50 – broadly, the concentration at which the effect is half-maximal – was determined as 1.68 µg/mL.

Regarding B2, the EC50 came to 0.0346 µg/mL.

Take B3: the EC50 worked out at 0.0284 µg/mL.

In turn, B4 displayed a concentration for a half-maximal effect (EC50) of 0.0326 µg/mL.

B5 gave a concentration giving a half-maximal response (EC50) of 0.0828 µg/mL.

B6 yielded a concentration for a half-maximal effect (EC50) of 1.86 µg/mL.

B7 came in with an EC50 of 0.0172 µg/mL.

For B8, the EC50 was > 10 µg/mL.

On to B9, for which the EC50 was determined as 0.216 µg/mL.

Molecule B10 registered an EC50 of 0.0724 µg/mL.

In the case of B11, the EC50 was 1.88 µg/mL.

For B12, the concentration for a half-maximal effect (EC50) was determined as 0.311 µg/mL.

Consider B13, for which the EC50 is 0.982 µg/mL.

Consider B14, for which the 50% effective concentration (EC50) is 0.61 µg/mL.

Consider B15, for which the concentration for a half-maximal effect (EC50) worked out at 0.208 µg/mL.

Molecule B16 yielded a half-maximal effective concentration (EC50) of 0.0303 µg/mL.

B17 came in with an EC50 of 0.0131 µg/mL.

B18 displayed a concentration giving a half-maximal response (EC50) of 0.0252 µg/mL.

B19: the EC50 worked out at 0.0255 µg/mL.

B20 gave a half-maximal effective concentration (EC50) of 0.038 µg/mL.

In the case of B21, the EC50 worked out at 0.0235 µg/mL.

As for B22, the EC50 is > 10 µg/mL.
